“Also recorded” adds a separate entry of the source.

Assay [1] has as its system cultured human corneal endothelial cell. The assay is described as follows: Culture of human corneal endothelial cells with or without RSPO: cell morphology and cell density. In kind it is cell-based. The source says:
GPR49/LGR5 was an orphan receptor of a G protein-coupled receptor superfamily, and a ligand thereof was not known previously. […] In order to determine the function of RSPO on CEC differentiation, the present inventors cultured primate CEC with human recombinant RSPO, or without human recombinant RSPO. […] In order to determine the function of RSPO on CEC proliferation, the present inventors performed immunohistochemical research on Ki67. […] In view of these findings, the present inventors considered that among a RSPO family, particularly, RSPO1 can play an important role in maintenance of CEC.
Finally, in order to further determine influence of RSPO1 on CEC, the present inventors maintained a secondary culture of human CEC in the presence or absence of RSPO1. […] The cell density of a RSPO1-treated cell increased as compared with that of a non-treated cell (FIG. 6B-E). In order to verify which pathway regulated this type of corneal endothelial MT, the present inventors investigated the expression level of a Wnt/β-catenin-associated molecule using Western blotting analysis. […] Further, the protein level of a cell transfected with NT and GPR49/LGR5 and treated with RSPO1 decreased as compared with that of a cell group not treated with RSPO1 (FIG. 6B-F).
A cultured human corneal endothelial cell was cultured for 7 days under conditions of 37° C. and 5% CO2, with being divided into a group of addition of RSPO1 (50 ng/ml) and a group of addition of no RSPO1. […] From the above result, the effect of suppressing differentiation of a corneal endothelial cell was recognized in RSPO1.

The test system of assay [2] is cultured monkey corneal endothelial cell. The assay is described as follows: Detection of proliferating cells with Click-iT EdU Imaging Kit after R-spondin 1 addition. In kind it is cell-based, cynomolgus monkey. Particulars: 10 ng/ml or 50 ng/ml R-spondin 1; almost confluent cells; 48 hours after addition. The method, then:
After addition of an R-spondin 1 protein to a cultured monkey corneal endothelial cell and culturing for 48 hours, a cell during proliferation was detected using the Click-iT Edu imaging Kit, and the positivity rates of EdU and the cell densities of a control cell and a cell to which R-spondin 1 was added were compared.
EdU (5-ethynyl-2′-deoxyuridine) is a modified nucleic acid taken into DNA at a DNA synthesis phase by a chemical reaction, and is widely used in place of a conventional BrdU for identifying a DNA synthesis phase cell. By measuring the positivity rate of EdU, the proliferative cell rate in a cultured cell is found.
(§1) A cultured monkey corneal endothelial cell (Lot. 20111222-4 P2) was treated with 0.05% trypsin at 37° C. for 10 minutes, peeled from a T-25 flask, and suspended in a culture medium (10% FBS+bFGF/DMEM). The number of cells was counted, and the suspension was adjusted with a culture medium to 3×10^4 cells/300 μl. Cells were seeded on a Lab-TekII chamber Slide (8 well) coated with FNS, in 300 μl/well.
At 7 days after cell seeding, a medium was exchanged with a medium containing R-spondin 1 (0, 10, 50 ng/ml) in the state where cells were almost confluent, and at 24 hours after addition of R-spondin 1, Click-iT EdU was added so that the final concentration was 10 μM. […]

Assay [3] relates to corneal endothelial cell of rabbit sclerocorneal section. The assay is described as follows: Organ culture of rabbit sclerocorneal section with R-spondin 1: Ki67-positive cell rate. It is filed as cell-based, white rabbit. Particulars: control about 1.0%. How it is done: Eyeballs of white rabbit (Nacalai) euthanized for another object were purchased, and a sclerocorneal section was prepared. The sclerocorneal section was cultured in an incubator at 37° C. for 1 week in DMEM (INVITROGEN, catalog No.: 12320) and 10% fetal bovine serum (FBS) (BIOWEST, catalog No.: 51820-500). […] A corneal endothelial cell was subjected to nuclear staining with DAPI, and the Ki67-positive cell rate was calculated. In addition, a corneal endothelial cell was immunostained with ZO-1, and the cell density was calculated.

Assay [4] deals with human corneal endothelial cell in the confluent state. The experiment in a line: Cell density of confluent human corneal endothelial cells cultured with R-spondin 1. It is filed as cell-based. Particulars: R-spondin 1 10 ng/ml, 566.8 at addition. The text has this:
• (Source and culture method): As a human corneal endothelial cell, a corneal endothelial cell was mechanically peeled together with a basal membrane from a cornea for research, purchased from Seattle Eye Bank, and the corneal endothelial cell was peeled and recovered from the basal membrane using collagenase (ROCHE catalog No.: 10 103 586 001), and was subjected to primary culturing. As a medium, for human, Opti-MEM I Reduced-Serum Medium, Liquid (INVITROGEN catalog No.: 31985-070), 8% fetal bovine serum (FES) (BIOWEST, catalog No.: S1820-500), […] CaCl2.2H2O (SIGMA catalog No.: C7902-500G), 0.08% chondroitin sulfate (SIGMA catalog No.: C9819-5G), 20 μg/ml ascorbic acid (SIGMA catalog No.: A4544-25G), 50 μg/ml gentamicin (INVITROGEN catalog No.: 15710-064) and 5 ng/ml EGF (INVITROGEN catalog No.: PHG0311), acclimated for a 3T3 feeder cell, were used.
After subculturing, at the time point where cells reached confluent and were cultured for 2 weeks or longer, and no clear change in the corneal endothelium density was recognized, R-spondin 1 was added into a medium in a concentration of 10 ng/ml, and culture was continued. Observation of cell morphology was performed with a phase contrast microscope, and the cell density was calculated.

The test system of assay [5] is cultured monkey corneal endothelial cell. The experiment in a line: Cell density measurement (Konan KSS-400EB) after R-spondin 1 addition. It is filed as cell-based, cynomolgus monkey. Particulars: 10 ng/ml or 50 ng/ml R-spondin 1; 48 hours after addition. The method, then: as §1
At 7 days after cell seeding, a medium was exchanged with a medium containing R-spondin 1 (0, 10, 50 ng/ml) in the state where cells were almost confluent, and at 24 hours after addition of R-spondin 1, Click-iT EdU was added so that the final concentration was 10 μM. (Although a manual of Kit recommended that a half of a medium was exchanged, a medium was not exchanged) After additional 24 hours (48 hours after addition of R-spondin 1), cells were fixed with 4% PFA/PBS, EdU was detected according to a manual of Kit, and the EdU-positive cell rate was counted (FIGS. 8 and 9).
A chamber slide after staining was photographed with a phase contrast microscope, and the cell density was measured using the corneal endothelial cell density calculating software, Konan Storage System KSS-400EB (FIG. 10).

B1: R-spondin 1: Recombinant Human R-spondin 1 (R&D Cat. 4645-RS); ligand of GPR49/LGR5 (protein, listed as Homo sapiens)
chain: MRLGLCVVALVLSWTHLTISSRGIKGKRQRRISAEGSQACAKGCELCSEVNGCLKCSPKLFILLERNDIRQVGVCLPSCPPGYFDARNPDMNKCIKCKIEHCEACFSHNFCTKCKEGLYLHKGRCYPACPEGSSAANGTMECSSPAQCEMSEWSPWGPCSKKQQLCGFRRGSEERTRRVLHAPVGDHAACSDTKETRRCTVRRVPCPEGQKRRKGGQGRRENANRNLARKESKEAGAGSRRRKGQQQQQQQGTVGPLTSAGPA
As to B1, the “cell morphology / in vitro CEC differentiation (phase contrast)” value in assay [1] (50 ng/ml (FIG. 6C-B)) was “compact and uniform hexagonal cell having a smaller size”. In assay [1] (RSPO1 50 ng/ml (FIG. 6B-E), without RSPO1 fibroblast-like phenotype), the “cell form in secondary culture of human CEC” value is listed as “maintained its hexagonal form”. Also, the “morphology of a cell” value in assay [1] (RSPO1 50 ng/ml, 7 days, non-addition group differentiated into fibroblast-like cells) is “maintained in a cobblestone manner”. In addition, the “cell density as compared with a non-treated cell” value in assay [1] (secondary culture of human CEC, RSPO1 50 ng/ml) is given as “increased”. The “EdU-positive cell/DAPI as compared with a control” value in assay [2] is recorded as “increased two times; also recorded: increased twice”. For the same molecule, the “rate of a Ki67-positive cell” value amounted to 4.49% in assay [3] (1 ng/ml R-spondin 1, 1 week); 10.58% in assay [3] (10 ng/ml R-spondin 1, 1 week); 7.94% in assay [3] (100 ng/ml R-spondin 1, 1 week). Further, the “corneal endothelial cell density” value in assay [4] (7th day) was “about 695 cells/mm^2”; in assay [4] (after 14 days), “about 875 cells/mm^2”; in assay [4] (after 21 days, control without R-spondin 1 535.4), 995.8 cells/mm^2. Also, the “cell density as compared with a control” value in assay [5] came out at 1.3 times.

The values above are taken from US9616101B2, “Differentiation marker and differentiation control of eye cell” (Kyoto Prefectural Public University Corporation, priority 2012, dated 2017).
